Entries after “also recorded” stand apart in the source; their conditions may differ.
What was measured:
[1] = test system: human bladder carcinoma T-24 cell line; assay: IL-6 secretion by T-24 carcinoma cells (ELISA); assay type: cell-based
Method: Primary cultures of human intestinal microvascular endothelial cells (HIMEC) isolated from normal jejunal mucosa/submucosal tissue were prepared as described (Strong et al., Gastroenterology 114: 1244-1256 (1998)). The HIMEC were cultured in fibronectin-coated plasticware in MCDB medium (Sigma) supplemented with 20% FBS, 90 μg/ml heparin and 50 μg/ml endothelial cell growth factor (Sigma). T-24 cells (ATCC Accession No. HTB-4) were cultured in M199 medium supplemented with 10% FBS. PBMC were purified by Ficoll-Paque gradient as described (Current Protocols in Immunology, pp 7.1.1-7.1.2). Vero cells (ATCC Accession No. CCL-81) were grown in RPMI medium with 5% Nu serum and infected with the Silvio X-10/4 of T. cruzi as described previously (Chuenkova et al., J. Exp. Med. 181: 1693-1703, (1995)).
Endothelial cells and T-24 cells were plated on 24-well plates at a density of 1×10^3 cells/well, while peripheral blood mononuclear cells (PBMC) were plated in the similar wells at 1×10^6/well. Triplicat cultures of cells were incubated test agents for a predetermined amount of time. […] Cytokines and chemokines released in the culture supernatants were measured by ELISA assay following the instructions of the manufacturer (Endogen). The cytokines tested were IL-1β, IL-4, IL-8, IL-10, IL-12, IFN-γ, TNF-α, and the chemokines RANTES and MCP-1. Negative controls were cells incubated in medium containing polymixin B at 10 μg/ml, and positive controls were cells incubated with bacterial LPS at the low ng/ml range (for PBMC or HIMEC) or in the μg/ml range for carcinoma T-24 cells. In some experiments, IL-1β, or TNFα were used as positive control for cytokine release.

[2] = test system: N18 cells; assay: Neurite outgrowth assay in N18 cells; assay type: cell-based; settings: immobilized proteins coated at 500 μg/ml, 17 hours (FIG. 3A)
Method: FIG. 3A is a graph showing that neurite outgrowth in N18 cells is induced by immobilized laminin (Ln), immobilized TS and immobilized fragments of TS. Proteins were immobilized by incubating plates which contained wells filled with solutions of the proteins (protein concentration was 500 μg/ml) at 4° C. overnight. The protein solutions were removed and the plates were further incubated with 1% BSA at room temperature for one hour. N18 cells were cultured in the coated wells in serum-free RPMI-1640/0.2% BSA for 17 hours, and neurite outgrowth was measured by phase-contrast microscopy. […] Ln, laminin; TS, purified T. cruzi trans-sialidase; 7F, recombinant TS from clone 7F; 19Y, recombinant TS from clone 19Y; TS-F, recombinant fragment consisting of amino acid residues 33-666 of TS (SEQ ID NO:2); TS-CC-47, recombinant fragment consisting of amino acid residues 79-478 of TS (SEQ ID NO:2); TS-Cat-47, recombinant fragment consisting of amino acid residues 79-415 of TS (SEQ ID NO:2); BSA, bovine serum albumin.
96-well microtiter plates were coated overnight at 4° C. with the TS or peptides or fragments thereof, or with control proteins laminin (Ln) or bovine serum albumin (BSA) at 500 μg/ml. After removing the compounds, the plates were further incubated with 1% BSA for 1 hour at room temperature and immediately used as substratum for PC12 or N18 (Prasad, K. N., Biol Rev Camb Philos Soc, 66:431-451 (1991)) cells in serum-free RPMI/0.2% BSA. Neurite outgrowth was measured using a phase-contrast microscope 17 hours later.

[3] = test system: Akt kinase in PC12 cells; assay: Immunodetection of activated Akt (Ser 473) in PC12 cells; assay type: cell-based, rat
Method: PC12 cells were deprived of serum for 24-48 hours, stimulated with TS, TS-F or LTR for 2, 5 or 10 minutes and immediately lysed with 2% SDS. In studies using the PI-3 kinase inhibitor, LY294002 (LY), cells were pre-treated with the inhibitor (1 μM) for 30 min prior to the addition of TS-F or TS. The proteins in the cell lysate were separated in SDS-10% polyacrylamide gels, transferred to nitrocellulose membrane (Bio-Rad) and the phosphorylated form of protein kinase Akt was detected with phospho-Akt (Ser 473) antibody (New England BioLabs, Beverly, Mass.), followed by alkaline phosphatase-conjugated secondary antibody (Promega, Madison, Wis.). Bands corresponding to phospho-Akt (60 kDa) were quantified using a scanning densitometer (Bio-Rad).

[4] = test system: PC12 cells; assay: Trophic factor withdrawal-induced apoptosis of PC12 cells (DAPI/TUNEL); assay type: cell-based, rat
Source text: PC12 cells were obtained from ATCC (Manassas, Va. (Accession No. CRL-1721)) and cultured on collagen-coated dishes in RPMI 1640 supplemented with 10% horse serum and 5% fetal bovine serum (Greene, L. A. and Tishler, A. S., Proc. Natl. Acad. Sci. USA, 73: 2424-2428 (1976)). For differentiation and survival experiments, cells were washed three times in serum-free RPMI/0.2% BSA, plated in the same medium in collagen-coated plastic dishes at 2×10^5/ml, without and with growth factors, TS, recombinant proteins, synthetic peptides, for the time and concentrations indicated in the Figures.
Cell staining with 4,6-diamino-2-phenylindole (DAPI). Cells were fixed with 4% formaldehyde in PBS for 5 minutes, washed with PBS, stained with 10 μg/ml DAPI (Sigma) for 2 minutes, washed with PBS, and visualized under UV light using a fluorescent microscope. About 300-400 cells were examined under the microscope to determine the percentage of apoptotic cells.
Cell DNA nick end labeling (TUNEL) (Gavrieli, Y., et al., J. Cell. Biol. 119: 493-501 (1992)) assay was performed using a kit purchased from Boehringer Mannheim as described by the manufacturer.
Protection against apoptosis of PC12 cells in serum-free medium containing a test agent (agent N)(e.g., protection induced by TS, TS fragments, NGF or other growth factors), was calculated by the formula: 100%-[(apoptosis(%) of cells kept in RPMI containing test agent N÷apoptosis (%) of cells kept in RPMI)×100%]. Testing the effect of wortmannin (Sigma) and LY294002 (Sigma) in inhibiting the neuroprotection of TS was performed following the protocol described by others (Yao and Cooper, Science, 267:2003-2006 (1995); D'Mello et al., J. Neurosci 17:1548-1560 (1997)). In brief, PC12 cells were switched from growth medium to RPMI without and with TS or various other growth factors. After 24 hr, wortmannin and LY294002 were added to the cultures. After another 24 hrs, cells were examined for apoptosis by the DAPI assay, as above.

[5] = test system: human Schwann cells; assay: Serum withdrawal-induced apoptosis of immortalized human Schwann cells (DAPI); assay type: cell-based

B1: TS: T. cruzi trans-sialidase purified by immuno-affinity chromatography from supernatants of infected Vero cells (SEQ ID NO:2, SEQ ID NO:34) (protein, listed as Trypanosoma cruzi)
chain: MVAIADARYETSSENSLIDTVAKYSVDDGETWETQIAIKNSRVSSVSRVVDPTVIVKGNKLYVLVGSYYSSRSYWSSHGDARDWDILLAVGEVTKSTAGGKITASIKWGSPVSLKKFFPAEMEGMHTNQFLGGAGVAIVASNGNLVYPVQVTNKRKQVFSKIFYSEDDGKTWKFGKGRSDFGCSEPVALEWEGKLIINTRVDWKRRLVYESSDMEKPWVEAVGTVSRVWGPSPKSNQPGSQTSFTAVTIEGMRVMLFTHPLNFKGRCVRDRLNLWLTDNQRIYNVGQVSIGDENSAYSSVLYKDDKLYCLHEINTDEVYSLVFARLVGELRIIKSVLRSWKNWTATCPAFAPLLIQPLRRQRVVVVPLSPRLVLLAFCRQRLPKRMGGSYRCVNASTANAERVRNGLKFAGVGGGALWPVSQQGQNQRYRFANHAFTLVASVTIHEAPRAASPLLGASLDSSGGKKLLGLSYDEKHQWQPIYGSTPVTPTGSWETGKRYHLVLTMANKIGSVYIDGELLEGSGQTVVPDGRTPDISHFYVGGYKRSDMPTISHVTVNNVLLYNRRQLNTEEIRTLFLSQDLIGTEAHMDSSSDSSAHSTPSTPADSSAHSTPSTPVDSSAHSTPSTPADSSAHGTPSTPVDSSAHGTPSTPADSSAHGTPSTPVDSSAHSTPSTPVDSSAHSTPSTPVDSSAHGAPSTPADSSAHGTPSTPVDSSAHGTPSTPADSSAHSTPSTPADSSAHSTPSTPADSSAHSTPSTPVDSSAHGTPSTPADSSAHSTPSTPADSSAHGTPSTPVDSSAHSTPSTPVDSSAHGTPSTPVDSSAHSTPSTPVDSSAHGTPSTPVDSSAHSTPSTPADSSAHSTPSTPADSSAHGTPSTPVDSSAHSTPSTPADSSAHSTPSTPVDSSAHSTPSTPADSSAHGTPSTPVDSSAHGTPSTPADSSAHSTPSTPADSSAHSTPSTPADSSAHSTPSTPVDSSAHSTPSTPADSSAHSTPSTPADSSAHSTPSTPADSSAHSTPSTPVDSSAHSTPSTPADSSAHGTPSTPADSSAHSTPSTPVDSSAHSTPSTPADSSAHGTPSTPADSSAHSTPSTPADSSAHGTPSTPADSSAHSTPSTPAGSSANGTVLILPDGAALSTFSGGGLLLCACALLLHVFFMAVF
IL-6 secretion by T-24 cells ([1]; 24 hours culture): stimulated IL-6 secretion
bacterial LPS concentration inducing the same IL-6 in T-24 cells ([1]; TS 1 μg/ml, 24 hr): 0.75 µg/mL
neurite outgrowth in N18 cells [2]: induced neurite outgrowth
phosphorylation/activation of Akt kinase in PC12 cells ([3]; 100 ng/ml, 2, 5 or 10 minutes, phospho-Akt (Ser 473) antibody): becomes activated; also recorded: induces serine phosphorylation of Akt kinase
exposure time after which Akt becomes activated ([3]; TS 100 ng/ml): 2 to 5 min
PC12 cells protected from death ([4]; TS 62 pM (equivalent to 12.5 ng/ml)): 45%
survival of PC12 cells grown in serum-free medium ([4]; TS 2.5 ng/ml alone or with CNTF 50 ng/ml or LIF 0.5 ng/ml): 13%
PC12 cells protected from apoptotic death ([4]; TS 2.5 ng/ml, NGF 0.5 ng/ml, alone or co-administered at the same concentrations): 15%
potency relative to NGF in preventing apoptosis ([4]; molar basis): more potent on a molar basis; also recorded: at concentrations lower than those required by nerve growth factor; also recorded: more effective on a molar base
protection of PC12 cells from apoptosis induced by trophic factor withdrawal ([4]; serum-free RPMI-1640/0.2% BSA, 17 hours, DAPI or TUNEL): effectively protected; also recorded: inhibits trophic factor withdrawal-induced apoptosis; also recorded: protects PC12 cells from apoptosis induced by trophic factor withdrawal in a dose dependent manner; also recorded: protected PC12 cells from apoptosis
duration of protection of PC12 cells by a single dose ([4]; time course, TS 0.5 nM (FIG. 5B)): up to several days; also recorded: delayed trophic factor withdrawal-induced apoptotic death
dose showing efficacy as trophic factor for Schwann cells [5]: ≥ 0.5 nM
inhibition of serum withdrawal-induced apoptosis of human Schwann cells ([5]; serum-free DMEM, 24-72 hours, DAPI): effectively inhibited; also recorded: dose-dependent inhibition
